Experimental data reported in US20240116985A1 (published 2024).
One block for each binder: values may come before it. Starred links: 1 amine or outer side, 2 acyl side, 3 side chain; linkers in the order of their positions; H or OH if unused. Positions of bridges follow the written chain, without caps; N, C: chain ends. Non-standard residues stand in square brackets, D forms with d. Primed or numbered codes have the meaning given here. *: point of attachment. PyrS2(3) = (S)-3-amino-1-((pent-4-en-1-yloxy)carbonyl)pyrrolidine-3-carboxylic acid, stapling residue, C=CCCCOC(=O)N1CC[C@@](N[*:1])(C(=O)[*:2])C1; PyrS2″ = (S)-3-amino-1-((pent-4-en-1-yloxy)carbonyl)pyrrolidine-3-carboxylic acid (stapling residue), C=CCCCOC(=O)N1CC[C@@](N[*:1])(C(=O)[*:2])C1; PyrS3″ = (S)-3-amino-1-((hex-5-en-1-yloxy)carbonyl)pyrrolidine-3-carboxylic acid (stapling residue), C=CCCCCOC(=O)N1CC[C@@](N[*:1])(C(=O)[*:2])C1; B5(18) = 2,2-bis(4-pentenyl)glycine (2-amino-2-(pent-4-en-1-yl)hept-6-enoic acid), stitching residue, C=CCCCC(CCCC=C)(N[*:1])C(=O)[*:2]; B5(4) = 2,2-bis(4-pentenyl)glycine = 2-amino-2-(pent-4-en-1-yl)hept-6-enoic acid (stitching residue), C=CCCCC(CCCC=C)(N[*:1])C(=O)[*:2]; TfeGA = (S)-2-amino-3-((carboxymethyl)(2,2,2-trifluoroethyl)amino)propanoic acid, O=C([C@H](CN(CC(=O)[*:3])CC(F)(F)F)N[*:1])[*:2]; PyrS4 = (S)-3-amino-1-((hept-6-en-1-yloxy)carbonyl)pyrrolidine-3-carboxylic acid, C=CCCCCCOC(=O)N1CC[C@@](N[*:1])(C(=O)[*:2])C1; PyrS2 = (S)-3-amino-1-((pent-4-en-1-yloxy)carbonyl)pyrrolidine-3-carboxylic acid, C=CCCCOC(=O)N1CC[C@@](N[*:1])(C(=O)[*:2])C1; TriAzDap = Dap whose side chain is a 1H-1,2,3-triazol-1-yl bearing the bracketed 4-substituent; B5(3) = 2,2-bis(4-pentenyl)glycine (stitching residue), C=CCCCC(CCCC=C)(N[*:1])C(=O)[*:2]; B3 = 2-allyl-2-aminopent-4-enoic acid, C=CCC(CC=C)(N[*:1])C(=O)[*:2]; Phe(3,4-F2) = N[C@@H](Cc1ccc(F)c(F)c1)C(=O)O; Phe(2-Cl) = N[C@@H](Cc1ccccc1Cl)C(=O)O; Bta = N[C@@H](Cc1csc2ccccc12)C(=O)O; αAllylPro = C=CC[C@@]1(C(=O)O)CCCN1; tBuAla = CC(C)(C)C[C@H](N)C(=O)O; 3Thi = N[C@@H](Cc1ccsc1)C(=O)O; MorphCH2 = C1CN(C*)CCO1

Tests used:
Assay in all cases: cell-based or functional assay
[1] = target: T1, B-cat-Halo (beta-catenin HaloTag NanoBRET construct expressed in HEK293 cells) (UniProt P35222 1-781)
T1 sequence (looked up): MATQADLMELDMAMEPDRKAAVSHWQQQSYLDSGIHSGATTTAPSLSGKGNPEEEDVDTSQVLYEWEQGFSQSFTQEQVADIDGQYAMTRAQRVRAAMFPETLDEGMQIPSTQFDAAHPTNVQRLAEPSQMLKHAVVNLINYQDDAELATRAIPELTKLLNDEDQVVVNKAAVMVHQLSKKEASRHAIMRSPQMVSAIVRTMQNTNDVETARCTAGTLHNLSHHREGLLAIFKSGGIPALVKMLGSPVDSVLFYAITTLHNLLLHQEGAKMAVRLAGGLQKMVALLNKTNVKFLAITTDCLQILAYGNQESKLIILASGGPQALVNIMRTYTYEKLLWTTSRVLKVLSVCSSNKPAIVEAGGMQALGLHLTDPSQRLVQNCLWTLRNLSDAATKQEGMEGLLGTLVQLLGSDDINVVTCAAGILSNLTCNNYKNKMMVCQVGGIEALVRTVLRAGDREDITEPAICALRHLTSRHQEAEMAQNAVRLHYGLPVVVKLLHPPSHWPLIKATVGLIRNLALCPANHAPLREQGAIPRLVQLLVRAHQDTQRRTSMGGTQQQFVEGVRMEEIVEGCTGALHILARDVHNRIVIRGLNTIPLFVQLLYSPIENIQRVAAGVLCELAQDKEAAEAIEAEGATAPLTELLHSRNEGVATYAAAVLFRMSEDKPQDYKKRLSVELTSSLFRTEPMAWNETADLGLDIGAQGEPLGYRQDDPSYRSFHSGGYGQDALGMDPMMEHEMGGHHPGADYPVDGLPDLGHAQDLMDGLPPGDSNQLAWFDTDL

Bcat-Halo = target: T2, Bcat-Halo (UniProt P35222 1-781)
T2 sequence (looked up): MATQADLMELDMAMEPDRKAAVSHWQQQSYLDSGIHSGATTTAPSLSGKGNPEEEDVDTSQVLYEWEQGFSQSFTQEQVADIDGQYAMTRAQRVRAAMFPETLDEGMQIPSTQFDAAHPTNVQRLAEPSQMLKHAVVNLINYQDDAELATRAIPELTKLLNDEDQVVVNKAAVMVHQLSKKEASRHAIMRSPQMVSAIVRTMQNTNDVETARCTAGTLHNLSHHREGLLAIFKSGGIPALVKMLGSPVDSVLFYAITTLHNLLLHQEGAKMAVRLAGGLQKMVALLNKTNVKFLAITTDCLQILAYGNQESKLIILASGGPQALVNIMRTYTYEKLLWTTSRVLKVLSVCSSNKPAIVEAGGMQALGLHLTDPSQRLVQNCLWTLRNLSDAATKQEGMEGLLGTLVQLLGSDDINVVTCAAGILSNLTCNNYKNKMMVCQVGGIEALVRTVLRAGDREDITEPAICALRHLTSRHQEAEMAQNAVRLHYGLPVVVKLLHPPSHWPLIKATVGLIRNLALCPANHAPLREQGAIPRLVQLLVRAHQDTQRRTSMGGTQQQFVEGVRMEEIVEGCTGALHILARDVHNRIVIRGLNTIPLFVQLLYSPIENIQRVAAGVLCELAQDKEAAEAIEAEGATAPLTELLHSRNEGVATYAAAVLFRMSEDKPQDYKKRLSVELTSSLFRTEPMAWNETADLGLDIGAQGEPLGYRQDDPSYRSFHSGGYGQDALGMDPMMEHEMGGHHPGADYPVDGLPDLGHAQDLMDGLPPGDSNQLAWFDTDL

[2] = target: T3, B-cat-Halo (beta-catenin HaloTag NanoBRET construct expressed in HEK293 cells) (UniProt P35222 1-781); remark: listed apart in the source
T3 sequence (looked up): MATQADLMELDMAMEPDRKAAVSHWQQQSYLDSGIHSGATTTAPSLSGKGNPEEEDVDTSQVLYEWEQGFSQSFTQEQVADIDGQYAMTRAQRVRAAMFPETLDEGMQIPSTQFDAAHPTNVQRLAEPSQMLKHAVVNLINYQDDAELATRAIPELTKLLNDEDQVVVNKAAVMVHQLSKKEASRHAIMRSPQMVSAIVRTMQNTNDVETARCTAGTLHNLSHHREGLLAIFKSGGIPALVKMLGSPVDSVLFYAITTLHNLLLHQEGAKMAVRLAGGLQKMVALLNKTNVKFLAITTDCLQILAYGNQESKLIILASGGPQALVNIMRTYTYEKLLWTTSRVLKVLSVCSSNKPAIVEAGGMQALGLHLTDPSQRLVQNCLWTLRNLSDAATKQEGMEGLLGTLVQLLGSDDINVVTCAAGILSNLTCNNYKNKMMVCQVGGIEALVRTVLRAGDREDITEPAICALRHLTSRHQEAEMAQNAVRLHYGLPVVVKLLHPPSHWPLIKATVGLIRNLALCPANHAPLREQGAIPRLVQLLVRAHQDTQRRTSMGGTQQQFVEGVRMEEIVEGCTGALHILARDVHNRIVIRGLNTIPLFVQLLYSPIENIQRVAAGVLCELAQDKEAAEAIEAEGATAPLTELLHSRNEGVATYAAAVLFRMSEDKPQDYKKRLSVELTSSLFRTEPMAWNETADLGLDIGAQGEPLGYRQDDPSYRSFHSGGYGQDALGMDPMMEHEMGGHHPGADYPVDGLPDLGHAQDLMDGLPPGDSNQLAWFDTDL

[3] = target: T4, B-cat-Halo (beta-catenin HaloTag fusion expressed in HEK293 cells) (UniProt P35222 1-781)
T4 sequence (looked up): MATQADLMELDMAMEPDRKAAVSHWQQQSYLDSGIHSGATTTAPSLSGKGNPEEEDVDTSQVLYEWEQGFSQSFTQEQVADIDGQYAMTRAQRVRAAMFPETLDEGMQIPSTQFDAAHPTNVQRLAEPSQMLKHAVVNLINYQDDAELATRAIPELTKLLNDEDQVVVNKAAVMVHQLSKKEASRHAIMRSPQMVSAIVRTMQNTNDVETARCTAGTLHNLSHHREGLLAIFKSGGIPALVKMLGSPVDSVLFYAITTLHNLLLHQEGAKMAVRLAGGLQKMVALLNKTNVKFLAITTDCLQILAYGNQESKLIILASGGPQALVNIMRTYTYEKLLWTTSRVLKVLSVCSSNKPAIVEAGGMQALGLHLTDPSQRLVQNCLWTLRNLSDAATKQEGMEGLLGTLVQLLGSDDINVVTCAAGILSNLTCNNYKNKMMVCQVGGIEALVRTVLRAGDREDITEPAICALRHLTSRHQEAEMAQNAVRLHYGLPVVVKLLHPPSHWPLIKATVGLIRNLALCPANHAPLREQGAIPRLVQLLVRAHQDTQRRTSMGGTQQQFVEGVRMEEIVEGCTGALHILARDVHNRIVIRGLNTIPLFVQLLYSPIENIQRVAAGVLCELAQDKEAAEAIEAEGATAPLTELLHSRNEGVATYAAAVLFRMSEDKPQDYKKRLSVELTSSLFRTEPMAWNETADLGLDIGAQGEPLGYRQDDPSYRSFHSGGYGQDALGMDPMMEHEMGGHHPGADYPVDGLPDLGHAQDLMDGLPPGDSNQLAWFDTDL

B2: I-1427 (peptide)
peptide: Ac-[αAllylPro]D[tBuAla][B5(4)]DDAAFL[PyrS2][3Thi][Phe(3,4-F2)]Q-NH2
modifications: staple 1-4, 4-11
- NanoBRET Abs IC50 (Bcat-Halo): 30.4 µM

B4: I-1866 (peptide)
peptide: Ac-[αAllylPro]D[tBuAla][B5(18)]D[TfeGA]AAF[TriAzDap](MorphCH2)[PyrS2(3)][3Thi][Bta]Q-NH2
modifications: staple 1-4, 4-11; not fully specified
- NanoBRET Abs IC50 [2]: > 20 µM

B5: I-1418 (peptide)
peptide: Ac-[αAllylPro]DL[B5(4)]DDAAFL[PyrS2″][Phe(2-Cl)][Bta]L-NH2
modifications: staple 1-4, 4-11; also: staple isomer composition of earlier HPLC peak
notes: Stapled peptide; staple isomer composition of the earlier HPLC peak
- NanoBRET Abs IC50 (Bcat-Halo): > 20 µM

B6: Ac-PL3-Asn-Npg-B5-Asp-Asp-Ala-Ala-Phe-Asn-PyrS2-3Thi-BztA-Gln-NH2 (peptide)
peptide: Ac-[αAllylPro]N[tBuAla][B5(3)]DDAAFN[PyrS2″][3Thi][Bta]Q-NH2
modifications: staple 1-4, 4-11
- NanoBRET Abs IC50 [3]: 17.3 µM

Other lines, results leading:

- NanoBRET Abs IC50 [1]: > 20 µM
B1: I-2162 (peptide)
peptide: Ac-[αAllylPro]D[tBuAla][B3]DDAAFL[PyrS4][3Thi][Bta]Q-NH2
modifications: staple 1-4, 4-11; also: olefin in each staple reduced to -CH2-CH2-

- NanoBRET Abs IC50 [1]: > 20 µM
B3: I-2158 (peptide)
peptide: Ac-[αAllylPro]D[tBuAla][B3]DDAAFL[PyrS4][3Thi][Bta]Q-NH2
modifications: staple 1-4, 4-11; also: earlier eluting HPLC peak (staple isomer composition)

- NanoBRET Abs IC50 [1]: > 20 µM
B7: I-2161 (peptide)
peptide: Ac-[αAllylPro]D[tBuAla][B3]DDAAFL[PyrS3″][3Thi][Bta]Q-NH2
modifications: staple 1-4, 4-11; also: olefin in each staple reduced to -CH2-CH2-
